Results taken from the supplement of paper PMC9732359.
± gives the uncertainty stated by the source.

Experiment: protein stability index of a GFP-peptide fusion (yeast GPS) (PSI 1-4); higher = more stable; sorted into four equal gates, so the index is relative within each strain
Procedure, shortened: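 The protein stability index of a peptide was calculated by multiplying its read frequency in each gate by that gate's number and adding the products. The peptides were tiled 17-residue stretches of yeast proteins, fused downstream of GFP on a Cherry-expressing plasmid and carried in yeast as a pooled library. Mid-log cultures in leucine-free medium were sorted into four equal gates by GFP/Cherry ratio, and each gate's plasmids were PCR-amplified and Illumina-sequenced.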

Sequence | protein stability index (doa10∆) | protein stability index (pdr5∆) | protein stability index (san1∆) | protein stability index (ubr1∆)
VTSEKYPFDKLESWWLV [BRR2] | 2.42 ± 0.29 | 2.91 ± 0.19 | 2.79 ± 0.12 | 3.3 ± 0.087
ARKHKLKTLVQGPRSYF [RPS27A] | 3.15 ± 0.14 | 3.34 ± 0.19 | 2.27 ± 0.14 | 2.72 ± 0.19
FRLIDTGALINNLEPRQ [RPN11] | 2.81 ± 0.23 | 3.18 ± 0.24 | – | –
DPQDVFNYNIFMHDPSV [SIR2] | 2.66 ± 0.08 | 2.02 ± 0.074 | 1.35 ± 0.12 | 2.69 ± 0.089
SRSTEKKNDMNTSAKNK [SIR4] | 2.52 ± 0.051 | 2.66 ± 0.05 | 2.9 ± 0.052 | 2.88 ± 0.047
NFNDIPPSVTLQDWQRE [YDL088C/ASM4] | 2.51 ± 0.078 | 2.31 ± 0.054 | 2.44 ± 0.077 | 3.09 ± 0.053
IFGSGFGSADDTYPYLT [FAS1] | 2.3 ± 0.075 | 1.74 ± 0.059 | 1.73 ± 0.09 | 2.1 ± 0.078
PFILEYDLMAPNGHIST [YMR129W/POM152] | 2.94 ± 0.12 | 3 ± 0.17 | – | 3.05 ± 0.097
PANNHQLGLQTVIRGNS [SMX2] | 3.02 ± 0.077 | 3.19 ± 0.086 | 2.91 ± 0.074 | 2.85 ± 0.053
SRSRSSIRSISPAGKYK [ESC2] | 2.84 ± 0.14 | 2.96 ± 0.099 | 3.17 ± 0.064 | 3.14 ± 0.085
HDFLFNTIIRDGSKMLK [RPN14] | 2.05 ± 0.11 | 2.55 ± 0.095 | 3.03 ± 0.15 | 1.38 ± 0.068
INPESREIVMPAHTKYM [ITC1] | 1.63 ± 0.17 | 1.5 ± 0.2 | 1.69 ± 0.14 | 2.18 ± 0.11
SNASRRKLINYTKKHLS [RPN4] | 1.73 ± 0.071 | 1.27 ± 0.056 | 1.56 ± 0.097 | 1.34 ± 0.042
FPPGVIGIDEGSDEAYV [RPC40] | 3.59 ± 0.091 | 3.41 ± 0.085 | 3.29 ± 0.077 | 3.51 ± 0.056
NVIDTQRKNGVTNSPLF [ECM29] | 3 ± 0.25 | 3.19 ± 0.091 | 3.09 ± 0.21 | 3.12 ± 0.11
KVFIRESLSLKNIHISK [YML103C/NUP188] | 2.09 ± 0.039 | 2.21 ± 0.045 | 2.01 ± 0.057 | 1.92 ± 0.03
VWFSHPRRYGKGSRQCR [RPS29A] | 3.14 ± 0.16 | 3.24 ± 0.1 | 3.39 ± 0.067 | 3.31 ± 0.11
NVSLIKIEGVATPQDAQ [RPL33A] | 2.74 ± 0.082 | 2.52 ± 0.061 | 2.38 ± 0.11 | 2.37 ± 0.059
LTDHRKETWLHELSSSH [SRB8] | – | 3.58 ± 0.19 | – | 2.76 ± 0.14
PQTPLVEPVTERTKLQE [SNU114] | 3.29 ± 0.15 | 3.07 ± 0.18 | 3.08 ± 0.1 | 3.31 ± 0.13
NKRWKVDIGGKQHAVLM [RRP4] | 2.87 ± 0.064 | 3.25 ± 0.067 | 3.18 ± 0.05 | 3.2 ± 0.037
KKMVYVLDSMTKEELES [SRP54] | 3.02 ± 0.086 | 2.85 ± 0.085 | 2.92 ± 0.091 | 3.04 ± 0.069

Sequence | protein stability index (doa10∆) | protein stability index (pdr5∆) | protein stability index (san1∆) | protein stability index (ubr1∆)
PEYFESPLQSSKSKQSF [YMR129W/POM152] | 2.78 ± 0.12 | 2.8 ± 0.08 | 2.91 ± 0.084 | 2.96 ± 0.076
GCDENDSTVNKSITLKG [YDL088C/ASM4] | 3.1 ± 0.091 | 3.27 ± 0.068 | 3.32 ± 0.06 | 3.11 ± 0.066
KNVRFRVLQLLAVIMDN [YCG1] | 1.64 ± 0.057 | 1.54 ± 0.06 | 1.24 ± 0.099 | 1.51 ± 0.043
PQFDSTQPKSSSSMDMQ [SSN3] | 2.94 ± 0.069 | 3 ± 0.068 | 2.95 ± 0.05 | 3.02 ± 0.044
LNLLSQNNTTKFHSELQ [RPN12] | 2.47 ± 0.091 | 2.24 ± 0.078 | 1.67 ± 0.12 | 2.16 ± 0.12
QMPLNSNGGNNMLPQRQ [SNF2] | 2.41 ± 0.047 | 2.79 ± 0.053 | 2.39 ± 0.064 | 2.54 ± 0.043
MDLLKFSSLAISEINFL [CSI1] | 2.1 ± 0.045 | 2.49 ± 0.037 | 2.16 ± 0.053 | 2.35 ± 0.047
ERSLRQKYNLLHVLPTL [SNM1] | 1.22 ± 0.07 | 1.3 ± 0.13 | 2.03 ± 0.28 | 1.35 ± 0.17
TEHLTELSDNEENFEAT [YCG1] | 2.87 ± 0.14 | 3.15 ± 0.16 | 3.54 ± 0.099 | 2.96 ± 0.12
WIRLRTNNTIRYNAKRR [RPL39] | 2.88 ± 0.12 | 2.65 ± 0.083 | 2.93 ± 0.1 | 2.72 ± 0.066
IAYSDSQSSNANICLTF [SIN4] | 2.74 ± 0.1 | 2.7 ± 0.065 | 2.38 ± 0.081 | 2.89 ± 0.069
FISELCSIEPIAAKLIN [YML103C/NUP188] | 1.41 ± 0.033 | 1.34 ± 0.044 | 1.44 ± 0.077 | 1.35 ± 0.045
EEYARRLAEFKRRKLDL [SMC4] | 3.13 ± 0.13 | 3.46 ± 0.12 | 2.72 ± 0.1 | 3.31 ± 0.08
GNNVQENELVITSIPKP [RMP1] | 3.42 ± 0.14 | 3.4 ± 0.11 | 3.37 ± 0.065 | 3.15 ± 0.064
GASINSMKANTSTNPNG [ARP7] | 2.72 ± 0.089 | 3.19 ± 0.089 | 2.74 ± 0.067 | 2.93 ± 0.058
PMDAYLKLNHIIANINS [SNU114] | 1.26 ± 0.078 | 2.59 ± 0.085 | 1.97 ± 0.22 | 2.4 ± 0.097
TLSKTTDSSALTYDRLE [PRE9] | 3.16 ± 0.1 | 2.99 ± 0.13 | 2.89 ± 0.1 | 2.94 ± 0.058
VTYTEHAKRKTVTSLDV [HHF1] | 3.25 ± 0.23 | – | – | 2.68 ± 0.095
SMATPTHSDSHEDMKRR [ROX3] | 2.77 ± 0.11 | 2.94 ± 0.11 | 2.53 ± 0.091 | 2.73 ± 0.04
LARASGNYVIIIGHNPD [RPL2A] | 2.8 ± 0.087 | 2.89 ± 0.089 | 2.85 ± 0.096 | 2.68 ± 0.097
DIYMHDVNSASKSESDS [RRP4] | 3.59 ± 0.12 | 3.48 ± 0.1 | 3.15 ± 0.098 | 3.22 ± 0.066
IDLEAPVQIVKRITQIT [RPS20] | 2.15 ± 0.12 | 2.23 ± 0.2 | 1.78 ± 0.14 | 2.2 ± 0.094
